Data as given in PMC7695563.

Biological target: MG1113, IgG4 monoclonal anti-tissue factor pathway inhibitor (TFPI) antibody
Assay: SPR

Kd: 0.0467 nM
koff: 0.000131 s⁻¹
kon: 2.82e+06 M⁻¹ s⁻¹
Substance: TFPI-α (tissue factor pathway inhibitor alpha) (from UniProt P10646-1 29-304) (natural protein)
